Laboratory results taken from IntAct's records for PubMed 31515488.

B1: Transcription factor 12 (Homo sapiens), Q99081 (parent)
chain: MNPQQQRMAAIGTDKELSDLLDFSAMFSPPVNSGKTRPTTLGSSQFSGSGIDERGGTTSWGTSGQPSPSYDSSRGFTDSPHYSDHLNDSRLGAHEGLSPTPFMNSNLMGKTSERGSFSLYSRDTGLPGCQSSLLRQDLGLGSPAQLSSSGKPGTAYYSFSATSSRRRPLHDSAALDPLQAKKVRKVPPGLPSSVYAPSPNSDDFNRESPSYPSPKPPTSMFASTFFMQDGTHNSSDLWSSSNGMSQPGFGGILGTSTSHMSQSSSYGNLHSHDRLSYPPHSVSPTDINTSLPPMSSFHRGSTSSSPYVAASHTPPINGSDSILGTRGNAAGSSQTGDALGKALASIYSPDHTSSSFPSNPSTPVGSPSPLTGTSQWPRPGGQAPSSPSYENSLHSLQSRMEDRLDRLDDAIHVLRNHAVGPSTSLPAGHSDIHSLLGPSHNAPIGSLNSNYGGSSLVASSRSASMVGTHREDSVSLNGNHSVLSSTVTTSSTDLNHKTQENYRGGLQSQSGTVVTTEIKTENKEKDENLHEPPSSDDMKSDDESSQKDIKVSSRGRTSSTNEDEDLNPEQKIEREKERRMANNARERLRVRDINEAFKELGRMCQLHLKSEKPQTKLLILHQAVAVILSLEQQVRERNLNPKAACLKRREEEKVSAVSAEPPTTLPGTHPGLSETTNPMGHM
partner: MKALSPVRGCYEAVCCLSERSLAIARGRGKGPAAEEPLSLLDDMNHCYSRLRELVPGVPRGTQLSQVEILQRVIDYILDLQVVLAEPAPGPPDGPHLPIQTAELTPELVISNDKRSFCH
B2: Isoform 1 of Ras association domain-containing protein 2 (Homo sapiens), P50749-1 (parent)
chain: MDYSHQTSLVPCGQDKYISKNELLLHLKTYNLYYEGQNLQLRHREEEDEFIVEGLLNISWGLRRPIRLQMQDDNERIRPPPSSSSWHSGCNLGAQGTTLKPLTVPKVQISEVDAPPEGDQMPSSTDSRGLKPLQEDTPQLMRTRSDVGVRRRGNVRTPSDQRRIRRHRFSINGHFYNHKTSVFTPAYGSVTNVRINSTMTTPQVLKLLLNKFKIENSAEEFALYVVHTSGEKQKLKATDYPLIARILQGPCEQISKVFLMEKDQVEEVTYDVAQYIKFEMPVLKSFIQKLQEEEDREVKKLMRKYTVLRLMIRQRLEEIAETPATI
partner: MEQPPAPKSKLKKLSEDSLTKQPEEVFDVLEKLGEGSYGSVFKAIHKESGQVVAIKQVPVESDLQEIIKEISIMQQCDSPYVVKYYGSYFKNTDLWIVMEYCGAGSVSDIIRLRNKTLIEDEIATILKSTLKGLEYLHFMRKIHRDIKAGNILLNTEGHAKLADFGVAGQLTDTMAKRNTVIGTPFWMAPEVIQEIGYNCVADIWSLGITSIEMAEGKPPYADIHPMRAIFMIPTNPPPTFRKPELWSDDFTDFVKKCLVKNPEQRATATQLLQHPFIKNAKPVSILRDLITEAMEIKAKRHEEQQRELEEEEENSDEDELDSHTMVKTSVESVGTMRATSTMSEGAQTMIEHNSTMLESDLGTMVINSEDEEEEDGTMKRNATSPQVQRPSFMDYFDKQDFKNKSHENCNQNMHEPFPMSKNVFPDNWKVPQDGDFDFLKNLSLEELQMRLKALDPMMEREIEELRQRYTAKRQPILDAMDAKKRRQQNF
B3: Nuclear pore glycoprotein p62 (Homo sapiens), P37198 (parent)
chain: MSGFNFGGTGAPTGGFTFGTAKTATTTPATGFSFSTSGTGGFNFGAPFQPATSTPSTGLFSLATQTPATQTTGFTFGTATLASGGTGFSLGIGASKLNLSNTAATPAMANPSGFGLGSSNLTNAISSTVTSSQGTAPTGFVFGPSTTSVAPATTSGGFSFTGGSTAQPSGFNIGSAGNSAQPTAPATLPFTPATPAATTAGATQPAAPTPTATITSTGPSLFASIATAPTSSATTGLSLCTPVTTAGAPTAGTQGFSLKAPGAASGTSTTTSTAATATATTTSSSSTTGFALNLKPLAPAGIPSNTAAAVTAPPGPGAAAGAAASSAMTYAQLESLINKWSLELEDQERHFLQQATQVNAWDRTLIENGEKITSLHREVEKVKLDQKRLDQELDFILSQQKELEDLLSPLEELVKEQSGTIYLQHADEEREKTYKLAENIDAQLKRMAQDLKDIIEHLNTSGAPADTSDPLQQICKILNAHMDSLQWIDQNSALLQRKVEEVTKVCEGRRKEQERSFRITFD
B4: Protein Dr1 (Homo sapiens), Q01658 (parent)
chain: MASSSGNDDDLTIPRAAINKMIKETLPNVRVANDARELVVNCCTEFIHLISSEANEICNKSEKKTISPEHVIQALESLGFGSYISEVKEVLQECKTVALKRRKASSRLENLGIPEEELLRQQQELFAKARQQQAELAQQEWLQMQQAAQQAQLAAASASASNQAGSSQDEEDDDDI
B5: von Hippel-Lindau disease tumor suppressor (Homo sapiens), P40337-2 (parent)
chain: MPRRAENWDEAEVGAEEAGVEEYGPEEDGGEESGAEESGPEESGPEELGAEEEMEAGRPRPVLRSVNSREPSQVIFCNRSPRVVLPVWLNFDGEPQPYPTLPPGTGRRIHSYRVYTLKERCLQVVRSLVKPENYRRLDIVRSLYEDLEDHPNVQKDLERLTQERIAHQRMGD

Variants of: B1
Conditions: with id3_human ID3, Q02535
In the case of G300S, the “effect of a mutation on the interaction” value is reported as “with no effect”. For I11M, the “effect of a mutation on the interaction” value was “with no effect”.

Variants of: B2
Conditions: with stk3_human STK3, Q13188
In the case of R144H, the “effect of a mutation on the interaction” value is reported as “with no effect”.

Variants of: B3
Conditions: with nup58_human NUP58, Q9BVL2
Sequence of nup58_human NUP58, Q9BVL2 (Q9BVL2 whole entry): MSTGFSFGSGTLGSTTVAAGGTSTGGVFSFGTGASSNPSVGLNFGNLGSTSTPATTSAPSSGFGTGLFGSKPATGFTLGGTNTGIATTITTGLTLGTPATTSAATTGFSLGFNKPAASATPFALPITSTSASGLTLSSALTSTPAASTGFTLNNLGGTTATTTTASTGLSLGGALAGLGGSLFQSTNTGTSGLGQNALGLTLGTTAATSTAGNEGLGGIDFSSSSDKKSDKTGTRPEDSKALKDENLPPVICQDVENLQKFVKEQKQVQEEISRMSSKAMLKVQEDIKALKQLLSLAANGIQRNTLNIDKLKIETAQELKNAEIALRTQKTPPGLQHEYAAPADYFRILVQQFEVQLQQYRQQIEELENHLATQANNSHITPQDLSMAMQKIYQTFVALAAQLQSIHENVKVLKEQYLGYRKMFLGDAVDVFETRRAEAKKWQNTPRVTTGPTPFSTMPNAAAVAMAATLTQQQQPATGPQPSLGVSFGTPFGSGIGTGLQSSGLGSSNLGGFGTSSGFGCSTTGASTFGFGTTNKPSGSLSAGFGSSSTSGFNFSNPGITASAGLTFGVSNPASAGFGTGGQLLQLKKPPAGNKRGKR
In the case of A279T, the “effect of a mutation on the interaction” value is reported as “with no effect”.

Variants of: B3
Conditions: with hsf2_human HSF2, Q03933
Sequence of hsf2_human HSF2, Q03933 (Q03933 whole entry): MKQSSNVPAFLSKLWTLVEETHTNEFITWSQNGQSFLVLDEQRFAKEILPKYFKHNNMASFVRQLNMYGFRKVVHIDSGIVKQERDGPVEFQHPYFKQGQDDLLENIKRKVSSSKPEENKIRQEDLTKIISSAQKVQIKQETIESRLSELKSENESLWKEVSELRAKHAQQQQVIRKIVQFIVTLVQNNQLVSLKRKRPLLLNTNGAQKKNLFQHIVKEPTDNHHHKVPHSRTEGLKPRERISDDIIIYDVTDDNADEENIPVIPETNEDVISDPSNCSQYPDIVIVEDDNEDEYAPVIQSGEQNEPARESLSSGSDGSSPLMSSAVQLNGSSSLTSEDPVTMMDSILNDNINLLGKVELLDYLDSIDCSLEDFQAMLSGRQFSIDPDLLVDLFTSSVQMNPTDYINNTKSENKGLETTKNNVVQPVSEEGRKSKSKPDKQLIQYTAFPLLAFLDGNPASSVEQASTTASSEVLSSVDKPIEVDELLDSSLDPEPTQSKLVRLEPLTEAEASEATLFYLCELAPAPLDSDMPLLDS
For A279T, the “effect of a mutation on the interaction” value was “with no effect”.

Variants of: B3
Conditions: with ntf2_human NUTF2, P61970
Sequence of ntf2_human NUTF2, P61970 (P61970 whole entry): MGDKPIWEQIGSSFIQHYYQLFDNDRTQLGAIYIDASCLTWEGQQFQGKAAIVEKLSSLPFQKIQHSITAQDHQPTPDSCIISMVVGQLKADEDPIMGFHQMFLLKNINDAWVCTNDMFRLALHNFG
For A279T, the “effect of a mutation on the interaction” value was “with no effect”.

Variants of: B3
Conditions: with abi2_human ABI2, Q9NYB9
Sequence of abi2_human ABI2, Q9NYB9 (Q9NYB9 whole entry): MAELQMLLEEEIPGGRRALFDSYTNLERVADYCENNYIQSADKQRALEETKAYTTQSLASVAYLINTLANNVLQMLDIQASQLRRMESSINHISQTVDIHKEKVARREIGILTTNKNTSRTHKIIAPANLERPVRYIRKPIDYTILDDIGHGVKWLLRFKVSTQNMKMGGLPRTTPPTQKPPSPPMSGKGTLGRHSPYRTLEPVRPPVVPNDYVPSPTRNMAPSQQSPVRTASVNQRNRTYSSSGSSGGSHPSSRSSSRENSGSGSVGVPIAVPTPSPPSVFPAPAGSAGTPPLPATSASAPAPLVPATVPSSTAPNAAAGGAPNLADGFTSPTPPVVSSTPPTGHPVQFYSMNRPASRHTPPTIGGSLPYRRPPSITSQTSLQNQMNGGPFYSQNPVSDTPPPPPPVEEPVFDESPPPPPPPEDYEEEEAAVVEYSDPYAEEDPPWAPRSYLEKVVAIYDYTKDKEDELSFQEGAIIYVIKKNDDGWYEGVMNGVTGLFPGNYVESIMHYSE
In the case of A279T, the “effect of a mutation on the interaction” value is reported as “with no effect”.

Variants of: B4
Conditions: with dpoe3_human POLE3, Q9NRF9
Sequence of dpoe3_human POLE3, Q9NRF9 (Q9NRF9 whole entry): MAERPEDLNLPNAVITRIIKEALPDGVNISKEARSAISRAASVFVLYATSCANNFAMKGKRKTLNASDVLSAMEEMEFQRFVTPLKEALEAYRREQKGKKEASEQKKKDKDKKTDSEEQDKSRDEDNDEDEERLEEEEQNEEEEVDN
E171D was tested, and the “effect of a mutation on the interaction” value was “with no effect”.

Variants of: B4
Conditions: with tbp_human TBP
In the case of E171D, the “effect of a mutation on the interaction” value is reported as “with no effect”.

Variants of: B5
Conditions: with mdfi_human MDFI
With S65W the “effect of a mutation on the interaction” value was “with no effect”. F76S was tested, and the “effect of a mutation on the interaction” value was “disrupting interaction strength”.
